Experimental findings from patent US20080051336A1 (Janssen / Centocor, published 2008) are described below.

Like-named read-outs stand apart in the source and are kept apart here. Ends that are not written are not given here.

One assay concerns the target T1, rat LGR7 (rat, UniProt Q6R6I6 1-758).
T1 construct: whole, on cells; Tested as membranes of transfected COS-7 cells; also called rat LGR7 receptors
T1 sequence (looked up): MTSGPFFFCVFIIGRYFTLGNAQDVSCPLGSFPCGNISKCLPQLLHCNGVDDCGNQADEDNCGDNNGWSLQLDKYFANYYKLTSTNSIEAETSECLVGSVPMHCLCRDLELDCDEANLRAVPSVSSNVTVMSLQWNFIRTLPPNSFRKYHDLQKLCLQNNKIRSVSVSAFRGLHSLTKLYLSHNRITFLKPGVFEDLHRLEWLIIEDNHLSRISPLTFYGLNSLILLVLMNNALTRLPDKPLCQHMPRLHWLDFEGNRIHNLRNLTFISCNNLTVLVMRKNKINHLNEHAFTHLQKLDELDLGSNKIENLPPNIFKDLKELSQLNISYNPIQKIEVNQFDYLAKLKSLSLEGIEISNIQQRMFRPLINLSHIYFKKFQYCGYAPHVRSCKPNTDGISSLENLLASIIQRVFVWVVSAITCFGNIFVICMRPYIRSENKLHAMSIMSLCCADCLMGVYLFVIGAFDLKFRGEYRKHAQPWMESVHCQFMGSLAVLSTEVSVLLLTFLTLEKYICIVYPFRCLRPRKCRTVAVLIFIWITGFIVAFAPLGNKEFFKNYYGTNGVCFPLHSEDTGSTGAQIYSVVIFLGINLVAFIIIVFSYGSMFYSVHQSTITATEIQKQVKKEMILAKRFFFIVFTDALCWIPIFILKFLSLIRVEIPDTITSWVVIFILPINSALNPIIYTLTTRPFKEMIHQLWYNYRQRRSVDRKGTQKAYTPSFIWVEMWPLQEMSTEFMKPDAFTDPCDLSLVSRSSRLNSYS
As to the kind of experiment: competition with [125I]R2 (100 pM), COS-7 membranes with rat LGR7.

Assay [1] addresses T2, rat GPCR135 (rat, UniProt Q8BGE9 1-472 (mouse entry)).
T2 construct: Also tested as the native receptor in rat brain sections; also called rat GPCR135 receptors
T2 chain: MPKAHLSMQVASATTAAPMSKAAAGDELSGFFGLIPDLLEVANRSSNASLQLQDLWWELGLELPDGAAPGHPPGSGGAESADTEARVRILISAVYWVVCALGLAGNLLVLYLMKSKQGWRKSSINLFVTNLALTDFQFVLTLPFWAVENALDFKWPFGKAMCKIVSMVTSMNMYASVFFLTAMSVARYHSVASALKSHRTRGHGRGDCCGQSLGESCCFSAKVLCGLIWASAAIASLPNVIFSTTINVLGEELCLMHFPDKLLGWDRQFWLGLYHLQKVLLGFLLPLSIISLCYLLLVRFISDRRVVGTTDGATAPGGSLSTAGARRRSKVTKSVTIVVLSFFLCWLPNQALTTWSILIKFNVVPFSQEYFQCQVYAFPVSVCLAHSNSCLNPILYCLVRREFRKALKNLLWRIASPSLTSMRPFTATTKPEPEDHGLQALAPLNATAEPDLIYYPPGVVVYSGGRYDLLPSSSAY
Nature of the assay: competition with [125I]R3 (100 pM), COS-7 membranes with rat GPCR135.
Procedure: (§1) The reaction was incubated at room temperature for 1 hour and the membranes were filtered through the 96-well GFC plates (Packard Instrument Co., Meriden, Conn.) using a cell harvester (Packard Instrument Co). The filter was washed with the ice cold washing buffer (50 mM Tris-HCl, pH 7.5). Fifty μl of Microscint 40 (Packard Instrument Co) was added to each well and the plates were counted on a Topcount NTX (Packard Instrument Co). […] The results were analyzed using the PRISM software (GraphPad, San Diego, Calif.).

The target of assay [2] is T3, human LGR7 (human, UniProt Q9HBX9 1-757).
T3 sequence (looked up): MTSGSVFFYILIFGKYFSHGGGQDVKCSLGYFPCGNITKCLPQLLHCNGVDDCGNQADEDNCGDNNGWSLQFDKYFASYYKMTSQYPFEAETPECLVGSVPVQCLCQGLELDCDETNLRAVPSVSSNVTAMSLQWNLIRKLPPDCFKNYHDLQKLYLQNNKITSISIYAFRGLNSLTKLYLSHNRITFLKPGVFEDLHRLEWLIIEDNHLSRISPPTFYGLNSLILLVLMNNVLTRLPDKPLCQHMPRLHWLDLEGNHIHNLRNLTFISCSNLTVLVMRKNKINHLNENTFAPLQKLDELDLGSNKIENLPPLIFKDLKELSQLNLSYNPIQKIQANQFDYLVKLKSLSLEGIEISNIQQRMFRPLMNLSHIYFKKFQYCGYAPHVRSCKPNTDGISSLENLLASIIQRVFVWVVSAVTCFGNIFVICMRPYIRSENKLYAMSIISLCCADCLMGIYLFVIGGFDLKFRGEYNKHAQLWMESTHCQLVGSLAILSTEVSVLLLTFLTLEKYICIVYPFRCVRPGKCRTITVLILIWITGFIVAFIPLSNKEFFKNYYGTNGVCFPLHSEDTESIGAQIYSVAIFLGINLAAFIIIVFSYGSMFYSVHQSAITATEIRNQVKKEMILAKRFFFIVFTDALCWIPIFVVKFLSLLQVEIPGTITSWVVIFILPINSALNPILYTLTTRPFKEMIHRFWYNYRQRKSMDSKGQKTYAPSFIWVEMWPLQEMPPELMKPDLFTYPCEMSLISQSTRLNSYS
Nature of the assay: cell-based or functional assay.

Assay [3] deals with T4, human GPCR135 (human, UniProt Q9NSD7 1-469).
T4 sequence: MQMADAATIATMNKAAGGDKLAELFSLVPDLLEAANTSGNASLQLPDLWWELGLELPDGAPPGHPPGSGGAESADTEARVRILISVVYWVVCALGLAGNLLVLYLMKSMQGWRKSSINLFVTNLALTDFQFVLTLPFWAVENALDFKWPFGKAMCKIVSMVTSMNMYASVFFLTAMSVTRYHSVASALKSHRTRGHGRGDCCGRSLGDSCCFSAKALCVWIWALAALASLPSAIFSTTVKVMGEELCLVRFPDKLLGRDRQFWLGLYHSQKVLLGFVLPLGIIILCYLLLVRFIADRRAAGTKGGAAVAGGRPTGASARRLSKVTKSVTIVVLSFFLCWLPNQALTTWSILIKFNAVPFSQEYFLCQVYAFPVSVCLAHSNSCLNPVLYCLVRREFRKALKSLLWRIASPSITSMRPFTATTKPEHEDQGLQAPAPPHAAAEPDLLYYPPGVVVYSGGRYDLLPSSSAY
As to the kind of experiment: cell-based or functional assay.

Assay [4] concerns the target T5, human GPCR142 (human, UniProt Q8TDU9 1-374). As to the kind of experiment: cell-based or functional assay.
The target of assay [5] is T3, human LGR7. Nature of the assay: cell-based or functional assay. The source holds these as a separate data set.
The target in assay [6] is T4, human GPCR135. As to the kind of experiment: discussion of the radioligand binding results.
Assay [7] deals with T3, human LGR7. Nature of the assay: discussion of the radioligand binding results.
The target of assay [8] is T3, human LGR7. As to the kind of experiment: radioligand competition, live COS-7 cells with human LGR7. Background: Displacement assays read how much labelled ligand stays bound in the presence of the test substance.
Procedure: (§2) Different unlabeled peptides were used in the binding assay as the competitors. […] Data represent mean±SEM (n=3).
(§3) Radioligand binding assays for LGR7 and LGR8 were performed using live COS-7 cells transiently transfected with LGR7 or LGR8 expression plasmids in 15-cm culture dishes using LipofectAmine (Invitrogen). Two days after transfection, the transfected cells were detached from the 15-cm culture dished using phosphate buffered saline (PBS) plus 10 mM EDTA, seeded into 96-well opaque poly-D-lysine coated culture plates and used for radioligand binding assays. […] [¹²⁵I]-labeled tracer was added in binding reactions at a final concentration of 100 pM in binding buffer containing DMEM plus 50 mM HEPES and 1% bovine serum albumin. […] The binding mixtures were incubated at room temperature for 1 hour. The unbound radioligand was removed by aspiration of the binding buffer. The cells were washed with PBS. The bound radioligand was counted in a scintillation counter (TopCount/NTX). The results were analyzed using Prism 3.0 program (Graphpad, San Diego, Calif.).
Assay [9] has as its target T2, rat GPCR135. As to the kind of experiment: radioligand competition, COS-7 membranes; reference rat LGR7.
Procedure: as §1
Assay [10] deals with T2, rat GPCR135. Nature of the assay: competition with [125I]-R3 (100 pM), COS-7 membranes with rat GPCR135.
Procedure: as §1
Assay [11] deals with T3, human LGR7. As to the kind of experiment: competition with [125I]-relaxin-3 (100 pM), live COS-7 cells with human LGR7.
Procedure: as §2, §3
For assay [12], the target named is T4, human GPCR135. Nature of the assay: competition with [125I]-relaxin-3 (100 pM), COS-7 membranes with human GPCR135.
Procedure: as §2
(§4) Peptides for competition binding studies were added to the binding mix (final volume: 200 μl) in binding buffer [50 mM Tris-HCl, pH 7.5, 5 mM EDTA, 1% bovine serum albumin, 0.1% protease inhibitor cocktails (Sigma)]. The binding mixtures were incubated at room temperature for 1 hour, filtered through GFC plates (Packard) pre-saturated with 0.3% Polyethylenimine (Sigma), and washed with cold washing buffer (50 mM Tris-HCl, pH 7.5, 5 mM EDTA).
Assay [13] deals with T5, human GPCR142. As to the kind of experiment: competition with [125I]-relaxin-3 (100 pM), COS-7 membranes with human GPCR142.
Procedure: as §2, §4
In a further assay the target is T6, human LGR8 (human, UniProt Q8WXD0 1-754).
T6 construct: whole, on cells
T6 sequence (Q8WXD0 whole entry): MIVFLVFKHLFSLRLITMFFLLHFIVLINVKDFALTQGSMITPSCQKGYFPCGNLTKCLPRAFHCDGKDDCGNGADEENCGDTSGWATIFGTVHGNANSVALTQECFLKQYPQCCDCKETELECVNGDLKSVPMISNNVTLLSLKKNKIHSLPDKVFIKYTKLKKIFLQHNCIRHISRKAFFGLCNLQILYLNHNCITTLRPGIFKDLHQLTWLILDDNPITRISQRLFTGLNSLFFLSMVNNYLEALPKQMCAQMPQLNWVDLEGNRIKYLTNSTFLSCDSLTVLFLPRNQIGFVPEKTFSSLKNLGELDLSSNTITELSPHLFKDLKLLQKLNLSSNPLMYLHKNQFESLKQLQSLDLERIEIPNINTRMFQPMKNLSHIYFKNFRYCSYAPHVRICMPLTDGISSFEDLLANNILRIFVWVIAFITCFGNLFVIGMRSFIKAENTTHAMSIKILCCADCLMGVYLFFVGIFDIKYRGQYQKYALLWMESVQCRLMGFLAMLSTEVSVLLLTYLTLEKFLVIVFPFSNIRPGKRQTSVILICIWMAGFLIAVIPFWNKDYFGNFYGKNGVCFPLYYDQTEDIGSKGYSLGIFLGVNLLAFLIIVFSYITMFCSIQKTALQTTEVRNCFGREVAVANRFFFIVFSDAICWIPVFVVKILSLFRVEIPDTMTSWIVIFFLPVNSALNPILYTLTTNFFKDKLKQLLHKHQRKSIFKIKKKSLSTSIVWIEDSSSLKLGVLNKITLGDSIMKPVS
Nature of the assay: competition with [125I]-INSL3 (100 pM) on live COS-7 cells expressing human LGR8; ND denotes no activity was detected.

The target in assay [14] is T2, rat GPCR135. Nature of the assay: inhibition of [125I]R3/I5 binding sites, quantitative receptor autoradiography, rat cortex.
Procedure: (§5) Sections were thawed and dried under a cold air stream and then pre-incubated for 15 min. at room temperature in incubation buffer (20 mM HEPES, pH 7.4, 120 mM NaCl₂, 0.22 mM KH₂PO₄, 1.3 mM CaCl₂, 0.8 mM MgSO₄) by immersing sections in a 400 ml jar. […] After incubation, the excess radioligand was washed off by immersing the slides in the jar containing incubation buffer at 4° C. (3 times 10 min.) followed by a quick immersion in water. […] The imaging plates were scanned using the Fuji Bio-Imaging Analyzer System (BAS-5000, Fuji Medical System, CT) and visualized using ImageGauge V3.12 software (Fuji Medical System, CT).
For assay [15], the target named is T2, rat GPCR135. Nature of the assay: inhibition of [125I]R3/I5 binding sites, quantitative receptor autoradiography, rat olfactory bulb.
Procedure: as §5
Assay [16] addresses T2, rat GPCR135. As to the kind of experiment: inhibition of [125I]R3/I5 binding sites, quantitative receptor autoradiography, rat superior colliculus.
Procedure: as §5
The target of assay [17] is T3, human LGR7. Nature of the assay: competition with [125I]-relaxin-3 (100 pM) on live COS-7 cells expressing human LGR7; ND denotes no activity was detected.
Procedure: as §2, §3

T5 sequence (Q8TDU9 whole entry L329S): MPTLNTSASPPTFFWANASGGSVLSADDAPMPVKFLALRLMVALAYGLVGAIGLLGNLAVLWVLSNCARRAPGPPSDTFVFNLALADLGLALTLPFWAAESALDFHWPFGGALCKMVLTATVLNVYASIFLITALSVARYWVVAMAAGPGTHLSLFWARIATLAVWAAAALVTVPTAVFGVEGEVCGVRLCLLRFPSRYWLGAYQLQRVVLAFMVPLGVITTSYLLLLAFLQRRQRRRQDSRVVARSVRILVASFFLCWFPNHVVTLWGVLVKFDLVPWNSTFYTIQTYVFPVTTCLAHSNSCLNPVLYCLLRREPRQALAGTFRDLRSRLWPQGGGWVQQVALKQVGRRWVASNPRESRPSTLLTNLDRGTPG
Procedure for human LGR8: as §2, §3

B1: human relaxin (R1) (ligand)
chain: KWKDDVIKLCGRELVRAQIAICGMSTWSRPYVALFEKCCLIGCTKRSLAKYC
notes: also called relaxin-1
Take B1: the IC50 (usually the concentration that gives 50% inhibition) with rat LGR7 was 0.2 nM; in the assay with rat GPCR135 [1], greater than 1000 nM.

B2: human relaxin-3/INSL5 chimeric polypeptide (R3/I5), mature (ligand)
chain: RAAPYGVRLCGREFIRAVIFTCGGSRWQDLQTLCCTDGCSMTDLSALC
modifications: disulfide (positions not given here); also: two chains (relaxin-3 B-chain, INSL5 A-chain), disulfide-linked, chain break not marked
notes: Mature two-chain peptide: human relaxin-3 B-chain disulfide-linked to human INSL5 A-chain; FLAG tag removed; the tracer is kept under this same molecule; also called R3/5; I5/R3
B2: the “EC50, ligand stimulated β-galactosidase expression” value with human LGR7 [2] was roughly 400 nM; with human LGR7 [5], 412 nM. Further, the “EC50, inhibition of forskolin stimulated β-galactosidase expression” value was 0.45 nM with human GPCR135 [3] and 0.91 nM with human GPCR142 [4]. For the same molecule, the Kd (commonly the free concentration of one partner at which half of the binding sites on the other are occupied at equilibrium, for simple one-to-one binding) in the assay with human GPCR135 [6] was roughly 0.5 nM; with human LGR7 [7], roughly 500 nM. Besides, the IC50 with human LGR7 [8] is roughly 500 nM; with rat LGR7, greater than 400 nM; in the assay with rat GPCR135 [10], 0.5 nM; with human LGR7 [11] it was 724 nM; with human GPCR135 [12], 0.68 nM; in the assay with human GPCR142 [13], 1.4 nM. The “fold selectivity over rat LGR7” value in the assay with rat GPCR135 [9] turned out to be 800 fold. The binding result with human LGR8 is given as “no binding”.

B3: human relaxin-3 (ligand)
chain: RAAPYGVRLCGREFIRAVIFTCGGSRWDVLAGLSSSCCKWGCSKSEISSLC
modifications: disulfide (positions not given here); also: two-chain peptide (A and B chains), disulfide-linked, places not given here
notes: Mature two-chain peptide (A-chain and B-chain, disulfide-linked); It is not clear whether that entry holds the B-chain alone or both chains; also called R3; INSL7
On to B3, for which the “EC50, stimulation of β-galactosidase activity” value in the assay with human LGR7 [2] stood at 1.4 nM. In addition, the IC50 with rat GPCR135 [14] came to 0.4 nM; in the assay with rat GPCR135 [15], 0.3 nM; in the assay with rat GPCR135 [16], 0.3 nM.

B4: human relaxin-3/INSL4 chimeric polypeptide (R3/I4), mature (ligand)
chain: RAAPYGVRLCGREFIRAVIFTCGGSRWFDPFCCEVICDDGTSVKLC
modifications: disulfide (positions not given here); also: two chains (relaxin-3 B-chain, INSL4 A-chain), disulfide-linked, chain break not marked
notes: Mature two-chain peptide: human relaxin-3 B-chain disulfide-linked to human INSL4 A-chain; FLAG tag removed
Regarding B4, the “EC50, inhibition of forskolin stimulated β-galactosidase expression” value with human GPCR135 [3] and in the assay with human GPCR142 [4] was greater than 1000 nM throughout. Also, the concentration for half-maximal inhibition (IC50) with human GPCR135 [12] and with human GPCR142 [13] was greater than 1000 nM in each case. The results for the binding result with human LGR8 and in the assay with human LGR7 [17] were “no binding” and “no binding (tested: 1 µM)”, respectively.
